Test results taken from patent US20140171373.

Assays:
[1] = biological target: human wild-type tau (tauWT), full-length, P10636
[2] = biological target: human tauP301L, full-length (from Tg4510 / rTg4510 mouse brain), P10636
[3] = biological target: T1, z-VAD-fmk (benzyloxycarbonyl-Val-Ala-Asp-fluoromethylketone)
T1 chain: VAD

human wild-type tau (tauWT), full-length, P10636, sequence (P10636 other isoform, or with tags, fused parts or gaps): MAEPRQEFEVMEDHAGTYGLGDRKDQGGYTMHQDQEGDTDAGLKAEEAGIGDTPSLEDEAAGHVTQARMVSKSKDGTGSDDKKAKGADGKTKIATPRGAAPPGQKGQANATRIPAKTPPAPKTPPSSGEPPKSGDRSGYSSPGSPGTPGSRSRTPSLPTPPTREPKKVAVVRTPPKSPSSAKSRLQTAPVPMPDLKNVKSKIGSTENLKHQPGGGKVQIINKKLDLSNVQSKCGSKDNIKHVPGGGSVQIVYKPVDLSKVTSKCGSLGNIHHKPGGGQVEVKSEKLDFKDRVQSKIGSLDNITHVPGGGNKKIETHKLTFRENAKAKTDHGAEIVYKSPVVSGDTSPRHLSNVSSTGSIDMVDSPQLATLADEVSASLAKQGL
human tauP301L, full-length (from Tg4510 / rTg4510 mouse brain), P10636, sequence (P10636 whole entry, looked up): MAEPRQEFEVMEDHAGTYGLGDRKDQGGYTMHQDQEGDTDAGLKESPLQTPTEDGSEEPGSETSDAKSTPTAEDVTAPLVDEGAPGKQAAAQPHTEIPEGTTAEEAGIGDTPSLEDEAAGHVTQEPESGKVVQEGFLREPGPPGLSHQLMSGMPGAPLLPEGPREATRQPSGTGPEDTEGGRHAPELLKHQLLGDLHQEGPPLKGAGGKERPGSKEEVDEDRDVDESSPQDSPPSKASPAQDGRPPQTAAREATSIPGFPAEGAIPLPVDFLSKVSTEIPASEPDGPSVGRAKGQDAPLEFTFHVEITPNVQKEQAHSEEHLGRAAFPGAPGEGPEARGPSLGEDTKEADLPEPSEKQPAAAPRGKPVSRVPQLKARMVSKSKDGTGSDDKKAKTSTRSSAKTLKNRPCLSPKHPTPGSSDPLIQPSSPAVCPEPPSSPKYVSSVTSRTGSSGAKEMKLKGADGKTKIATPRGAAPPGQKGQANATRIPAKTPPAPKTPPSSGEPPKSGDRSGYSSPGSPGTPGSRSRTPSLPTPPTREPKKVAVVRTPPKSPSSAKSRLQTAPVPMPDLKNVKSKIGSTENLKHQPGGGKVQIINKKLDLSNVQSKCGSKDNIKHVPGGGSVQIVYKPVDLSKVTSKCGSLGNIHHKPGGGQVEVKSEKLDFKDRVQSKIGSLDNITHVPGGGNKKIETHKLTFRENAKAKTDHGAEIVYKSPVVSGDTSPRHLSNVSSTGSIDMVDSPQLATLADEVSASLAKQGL

B1: caspase-2 (protein)
chain 1: GPVCLQVKPCTPEFYQTHFQLAYRLQSRPRGLALVLSNVHFTGEKELEFRSGGDVDHSTLVTLFKLLGYDVHVLCDQTAQEMQEKLQNFAQLPAHRVTDSCIVALLSHGVEGAIYGVDGKLLQLQEVFQLFDNANCPSLQNKPKMFFIQACRGDET
chain 2: GKNHAGSPGCEESDAGKEKLPKMRLPTRSDMICGYACLKGTAAMRNTKRGSWYIEALAQVFSERACDMHVADMLVKVNALIKDREGYAPGTEFHRCKEMSEYCSTLCRHLYLFPGHPPT
[1]
  35 kDa fragment after incubation with recombinant caspase-2: generated a 35 kDa fragment only in the wild-type tau reaction that comigrates with tau truncation mutant ΔC314
  35 kDa fragment on Tau-13 immunoblot after incubation with the caspase: a 35 kDa fragment generated by co-incubating caspase-2 with full-length tau proteins purified from ... (B) brain lysates of rTg21221 mice expressing human wild-type tau (tauWT) ... or (C) synthetic human tauWT
tauD314G, P10636
tauD314G, P10636, sequence (P10636 whole entry, looked up, the tested form may be a part): as the sequence (P10636 whole entry, looked up) above
  35 kDa fragment after incubation with recombinant caspase-2: generated a 35 kDa fragment only in the wild-type tau reaction (tauD314G: none)
[2]
  35 kDa fragment on Tau-13 immunoblot after incubation with the caspase: a 35 kDa fragment generated by co-incubating caspase-2 with full-length tau proteins purified from (A) brain lysates of Tg4510 mice expressing human tauP301L
tauD314E, P10636
tauD314E, P10636, sequence (P10636 whole entry, looked up, the tested form may be a part): as the sequence (P10636 whole entry, looked up) above
  35 kDa fragment after incubation with recombinant caspase-2: generated a 35 kDa fragment only in the wild-type tau reaction (tauD314E: none)
[3]
  cleavage of tau by the caspase, Tau-13 immunoblot: 50 µM z-VAD-fmk ... (+inhibitor), a general caspase inhibitor, blocked all cleavage
  cleavage of the FITC peptide substrate, LabChip: Caspase inhibitor blocks caspase-2-mediated cleavage of Asp314 peptide substrate
